From publication PMC11019746 (ACS Pharmacology & Translational Science, 2024)
Where two headings read alike, the source gives them in different places. Where no end group is shown, it is not given here.

T1: hY1R (Homo sapiens, UniProt P25929)
T1 construct: host or cells: SK-N-MC neuroblastoma cells
T1 sequence (P25929 1-384): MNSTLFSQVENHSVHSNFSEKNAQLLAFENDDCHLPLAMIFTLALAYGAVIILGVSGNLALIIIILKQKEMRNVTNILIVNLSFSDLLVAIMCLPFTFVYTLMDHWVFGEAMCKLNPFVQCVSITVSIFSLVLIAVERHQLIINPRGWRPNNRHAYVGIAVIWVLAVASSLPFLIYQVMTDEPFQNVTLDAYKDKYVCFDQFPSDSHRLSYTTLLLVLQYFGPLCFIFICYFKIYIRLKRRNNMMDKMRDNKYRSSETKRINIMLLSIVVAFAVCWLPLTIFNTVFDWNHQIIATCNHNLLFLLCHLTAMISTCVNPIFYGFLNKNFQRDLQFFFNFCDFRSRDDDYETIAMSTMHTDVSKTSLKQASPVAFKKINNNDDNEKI

T2: hY5R (Homo sapiens, UniProt Q15761)
T2 construct: expressed in transfected cells; host or cells: HEC-1B (human endometrial cancer)
T2 sequence (Q15761 1-445): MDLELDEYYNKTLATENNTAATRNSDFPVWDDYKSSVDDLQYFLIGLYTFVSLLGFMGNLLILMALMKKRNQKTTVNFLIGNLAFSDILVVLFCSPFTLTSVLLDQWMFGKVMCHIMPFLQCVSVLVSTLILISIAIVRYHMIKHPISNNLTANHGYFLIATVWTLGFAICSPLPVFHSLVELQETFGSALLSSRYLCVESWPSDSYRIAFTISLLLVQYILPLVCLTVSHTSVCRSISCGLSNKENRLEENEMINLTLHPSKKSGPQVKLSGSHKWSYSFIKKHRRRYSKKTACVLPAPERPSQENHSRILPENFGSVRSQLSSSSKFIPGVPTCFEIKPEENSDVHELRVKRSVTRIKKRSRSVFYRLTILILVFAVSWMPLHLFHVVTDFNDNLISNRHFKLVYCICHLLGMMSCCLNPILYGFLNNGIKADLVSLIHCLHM

T3: hY2R (Homo sapiens, UniProt P49146)
T3 construct: host or cells: CHO
T3 sequence (P49146 1-381): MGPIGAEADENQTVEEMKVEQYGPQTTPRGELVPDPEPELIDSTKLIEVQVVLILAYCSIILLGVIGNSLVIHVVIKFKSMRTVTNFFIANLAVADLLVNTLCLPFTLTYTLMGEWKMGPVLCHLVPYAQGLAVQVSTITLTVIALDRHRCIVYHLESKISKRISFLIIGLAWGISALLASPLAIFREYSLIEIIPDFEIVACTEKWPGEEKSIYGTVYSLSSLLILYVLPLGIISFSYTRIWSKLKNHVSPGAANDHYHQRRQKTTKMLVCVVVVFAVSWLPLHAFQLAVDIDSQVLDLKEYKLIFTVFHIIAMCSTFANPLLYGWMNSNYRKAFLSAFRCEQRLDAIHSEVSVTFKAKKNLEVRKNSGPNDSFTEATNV

T4: human neuropeptide Y Y2 receptor (human, UniProt P49146 1-381)
T4 construct: also called hY2R; source: CHO-hY2R cells (from PerkinElmer), intact cells
T4 sequence (looked up): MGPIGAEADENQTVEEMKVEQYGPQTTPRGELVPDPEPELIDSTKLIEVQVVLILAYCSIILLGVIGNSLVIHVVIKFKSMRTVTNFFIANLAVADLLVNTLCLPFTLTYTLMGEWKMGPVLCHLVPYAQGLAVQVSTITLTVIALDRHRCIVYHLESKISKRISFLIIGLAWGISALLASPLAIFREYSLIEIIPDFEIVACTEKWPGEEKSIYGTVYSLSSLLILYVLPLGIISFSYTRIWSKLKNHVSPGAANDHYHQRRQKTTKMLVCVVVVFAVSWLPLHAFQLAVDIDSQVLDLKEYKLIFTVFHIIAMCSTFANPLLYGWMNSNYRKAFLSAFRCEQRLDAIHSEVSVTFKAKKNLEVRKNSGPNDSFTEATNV


Key:
hY4R [1] = biological target: T5, hY4R (Homo sapiens, UniProt P50391); design: expressed in transfected cells; host or cells: CHO (co-expressing Gqi5 and mitochondrially targeted aequorin); settings: cited from earlier work
Y4R = Y4R (Homo sapiens, UniProt P50391); assay: Y4R miniGsi recruitment assay (HEK293T-NlucN-mGsi/Y4R-NlucC cells); type: cell-based; design: expressed in transfected cells; host or cells: HEK293T; settings: read-out: miniGsi recruitment Emax ± SEM; note: relative to 1 µM hPP (100%)
Description: Furimazine was used as nanoluciferase substrate. The original stock was diluted 1:1000 in L15-HEPES to obtain the feed solution for the assay. Data analysis was performed based on the areas under the curves (time window: 45 min starting with the agonist addition) using GraphPad Prism 5. […] Efficacies Emax correspond to the upper plateaus of the normalized concentration–response curves.

hY1R = biological target: T1, hY1R; assay: Y1R radioligand competition binding, whole SK-N-MC cells, [3H]UR-MK299; settings: SK-N-MC neuroblastoma cells, [3H]UR-MK299 c = […]; read-out: pKi ± SEM hY1R (converted)
Description: (§1) All radioligand binding assays were performed at intact Y receptor expressing cells at 23 ± 2 °C.
Competition binding assays at Y1R-expressing SK-N-MC neuroblastoma cells were performed as previously described using [^3H]UR-MK299 as radioligand (concentration: 0.15 nM).[33] […] (logarithmic form in the case of pKi values).

hY5R = biological target: T2, hY5R; assay: Y5R radioligand competition binding, whole HEC-1B-hY5R cells, [3H]propionyl-pNPY; settings: [3H]propionyl-pNPY c = 5 nM
Description: as §1
(logarithmic form in the case of pKi values).

hY2R = biological target: T3, hY2R; assay: Y2R radioligand competition binding, whole CHO-hY2R cells, [3H]propionyl-pNPY; settings: read-out: pKi ± SEM hY2R (converted)
Description: as §1

hY4R [2] = biological target: T5, hY4R; assay: Y4R Ca2+ aequorin assay (CHO-hY4R-Gqi5-mtAEQ cells); type: cell-based; design: expressed in transfected cells; host or cells: CHO (co-expressing Gqi5 and mitochondrially targeted aequorin); settings: for EC50: CHO-hY4R-Gqi5-mtAEQ cells, agonist mode, read-out: Ca2+-aequorin pEC50 ± SEM (converted); for Emax: read-out: Ca2+-aequorin Emax ± SEM
Description: The assay was performed with live CHO-hY4R-Gqi5-mtAEQ cells as previously described (used buffer: buffer III). Measurements were carried out on a Tecan Infinite Lumi plate reader. Data analysis was performed as reported using GraphPad Prism 5 for the calculation of the area under the curve. […] Efficacies Emax correspond to the upper plateaus of the normalized concentration–response curves.

[3] = Chemical stability in PBS pH 7.4; type: physicochemical
Description: The chemical stability of the fluorescent ligands 16, 17, and 18 was investigated in PBS (adjusted to pH 7.4) at 22 °C. […] After time periods of 0, 6, and 48 h, an aliquot (25 μL) was withdrawn and added to 25 μL of acetonitrile/0.04% aq. TFA 1:9 v/v to obtain a peptide solution with a concentration of 50 μM. 20 μL of this solution were subjected to analytical RP-HPLC analysis using the same system and conditions as described under Analytical HPLC, but applying a different linear gradient: 0–14 min: A/B 90:10–45:55, 14–15 min: 45:55–5:95, 15–19 min: 5:95 (isocratic). A 1:1 mixture of PBS and acetonitrile/0.04% aq. TFA 1:9 v/v (20 μL) was analyzed to obtain the blank chromatogram.

[4] = biological target: T6, human neuropeptide Y Y4 receptor (wild-type, CHO-hY4R-Gqi5-mtAEQ cells) (human, UniProt P50391 1-375); assay: flow cytometry on cells; association (0.7 nM 16, 1 nM 17, 0.5 nM 18) and dissociation (started with excess hPP and 5) at CHO-hY4R-Gqi5-mtAEQ cells, DPBS (137 mM Na^+), 22 ± 2 °C; monophasic and biphasic fits; Kd(kin) = koff/kon; settings: one partner purified
T6 construct: The cells also express Gqi5 and mitochondrially targeted aequorin; also called wild-type Y4R

[5] = biological target: human neuropeptide Y Y5 receptor (human) (UniProt Q15761); assay: radioligand binding; competition with [^3H]propionyl-pNPY (5 nM) at intact HEC-1B-hY5R cells, 23 ± 2 °C, buffer II (150 mM NaCl)
[6] = biological target: human neuropeptide Y Y1 receptor (human) (UniProt P25929); assay: radioligand binding; competition with [^3H]UR-MK299 ([…]) at intact SK-N-MC cells, 23 ± 2 °C, buffer II (150 mM NaCl)
[7] = biological target: T4, human neuropeptide Y Y2 receptor; assay: radioligand binding; competition with [^3H]propionyl-pNPY (0.5 nM) at intact CHO-hY2R cells, 23 ± 2 °C, buffer I (sodium-free); settings: one partner purified
[8] = biological target: T6, human neuropeptide Y Y4 receptor …; assay: cell-based or functional assay

| Molecule | Kd (hY4R [1]) [nM] | kobs(bi,fast) [4] [min⁻¹] | kobs(bi,slow) [4] [min⁻¹] | kobs(mono) [4] [min⁻¹] | pKi [5] | pKi [6] | pKi [7] | other results |
| --- | --- | --- | --- | --- | --- | --- | --- | --- |
| 1: Sulfo-Cy5-labeled [K^4,Nle^17,30]hPP, reported Y4R fluorescent ligand [Compound 1] | 11 | – | – | – | – | – | – | – |
| 2: 5-TAMRA-labeled [K^18,Nle^17,30]hPP, reported Y4R fluorescent ligand [Compound 2] | 26 | – | – | – | – | – | – | – |
| C#CCCCCNC(=O)N=C(N)NCCC[C@@H]1NC(=O)CCC(=O)NCCCCNC(=O)N=C(N)NCCC[C@@H](C(=O)N[C@@H](CC(C)C)C(=O)N[C@@H](CCCNC(=N)N)C(=O)N[C@@H](Cc2ccc(O)cc2)C(N)=O)NC(=O)[C@H](Cc2ccc(O)cc2)NC1=O [Compound 11, (9S,12S,15S,E)-4-Amino-N-{(S)-1-[((S)-1-{[(S)-1-amino-3-(4-hydroxyphenyl)-1-oxopropan-2-yl]amino}-5-guanidino-1-oxopentan-2-yl)amino]-4-methyl-1-oxopentan-2-yl}-15-{3-[(E)-2-(hex-5-yn-1-ylcarbamoyl)guanidino]propyl}-12-(4-hydroxybenzyl)-2,11,14,17,20-pentaoxo-1,3,5,10,13,16,21-heptaazacyclopentacos-3-ene-9-carboxamide Tris(hydrotrifluoroacetate)] | – | – | – | – | – | – | – | Emax (Y4R): 62 ± 1%; Ki (hY1R): > 10000 nM; Ki (hY5R; read-out: Ki hY5R (converted)): > 3000 nM; Ki (hY5R; read-out: pKi ± SEM hY5R (converted)): > 3160 nM; Ki (hY2R): > 10000 nM; EC50 (hY4R [2]): 97.7 nM; Emax (hY4R [2]): 56 ± 3% |
| Cc1cc(/C=C/c2cc3c4c(c2)CCCN4CCC3)cc(C)[n+]1CCCC(=O)N[C@@H]1CC(=O)N[C@@H](CCCNC(=N)N)C(=O)N[C@@H](Cc2ccc(O)cc2)C(=O)N[C@H](C(=O)N[C@@H](CC(C)C)C(=O)N[C@@H](CCCNC(=N)N)C(=O)N[C@@H](Cc2ccc(O)cc2)C(N)=O)CCCNC(N)=NC(=O)NCCCCNC1=O [Compound 18] | – | – | – | – | – | – | – | Emax (Y4R): 44 ± 2%; Ki (hY1R): > 1000 nM; time with marginal degradation ([3]; PBS pH 7.4 (10% DMSO), room temperature): ≥ 6 h; chemical stability ([3]; PBS pH 7.4, room temperature, 48 h, 100 μM): slow decomposition; Ki (hY5R; read-out: Ki hY5R (converted)): 840 nM; Ki (hY2R): > 1000 nM; EC50 (hY4R [2]): 50.1 nM; Emax (hY4R [2]): 61 ± 5% |
| Sulfo-Cy5-[K^4]hPP: Sulfo-Cy5-labeled [K^4]hPP, reported fluorescent Y4R ligand (APLKPVYPGDNATPEQMAQYAADLRRYINMLTRPRY; not fully specified) | 5.6 | – | – | – | – | – | – | – |
| RYRLRY-NH2 (also: Sulfo-Cy5 (S0223) conjugated to the amine of the cyclic precursor peptide 6, N^ω-carbamoylated arginine in the ring, position not given here, peptide part as in m6; structure drawn in Scheme 2; source: synthetic peptide: from precursor peptide 6 and the succinimidyl ester 13 (S0586) of Sulfo-Cy5 (S0223), preparative HPLC) [fluorescent ligand 17 (Sulfo-Cy5-labeled cyclic hexapeptide)] | – | 1.89 | 0.071 | 0.15 | < 6 | < 6 | < 6 | – |
| RYRLRY-NH2 (not fully specified (bridges); also: Cy3B conjugated to the amine of the cyclic precursor peptide 6, N^ω-carbamoylated arginine in the ring, position not given here, structure drawn in Scheme 2; source: synthetic peptide: from precursor peptide 6 and Cy3B succinimidyl ester (12), preparative HPLC) [fluorescent ligand 16 (Cy3B-labeled cyclic hexapeptide)] | – | 1 | 0.048 | 0.18 | 6.32 | 6.91 | < 6 | – |
| RYRLRY-NH2 (also: Py-1 cyanine dye on the amine of a carbamoylated Arg in the ring, position not given here, cyclic, ring closure not given here, peptide part as in m6; structure drawn in Scheme 2; source: synthetic peptide: from precursor peptide 6 and the pyrylium dye Py-1 (14), preparative HPLC) [fluorescent ligand 18 (Py-1-labeled cyclic hexapeptide)] | – | 0.7 | 0.034 | 0.1 | 6.08 | < 6 | < 6 | – |
| RYRLRY (not fully specified; as 11; the alkyne of the carbamoylated arginine in position 1 joined by click chemistry (triazole) to the azido-functionalized pyridinium-type cyanine dye 15 (from Py-5); C-terminal amide, peptide chain as in 11, whose linear precursor 10 is printed in three-letter code at h-0020; 19 is made from 11 and dye 15; source: synthetic peptide: from 11 and the azido-functionalized dye 15 by copper(I)-catalyzed click reaction, preparative HPLC) [fluorescent ligand 19 (Py-5-labeled cyclic hexapeptide)] | – | – | – | – | < 6 | < 6 | < 6 | EC50, Ca^2+-aequorin assay (CHO-hY4R-Gqi5-mtAEQ cells) [8]: 58 nM |
